# Experimental data as given in patent US20120142593A1 (Bayer, published 2012).
# T1: recombinant mouse FcRn (mouse, UniProt Q61559 22-297; P01887 21-119, limits assumed)
# T1 construct: also called mFcRn
# T1 sequence (looked up) 1: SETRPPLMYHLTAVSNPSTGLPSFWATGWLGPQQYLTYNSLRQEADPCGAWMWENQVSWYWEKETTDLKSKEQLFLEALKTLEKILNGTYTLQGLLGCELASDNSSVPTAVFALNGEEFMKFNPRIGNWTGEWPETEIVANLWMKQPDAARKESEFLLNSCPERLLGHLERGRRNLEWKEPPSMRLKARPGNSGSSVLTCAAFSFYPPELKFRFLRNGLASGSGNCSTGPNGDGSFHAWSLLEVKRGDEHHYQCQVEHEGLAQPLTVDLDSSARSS
# T1 sequence (looked up) 2: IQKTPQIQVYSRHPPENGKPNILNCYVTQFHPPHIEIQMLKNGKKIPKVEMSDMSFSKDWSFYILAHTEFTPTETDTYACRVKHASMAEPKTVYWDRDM
# Assays:
# [1] = molecular target: human von Willebrand Factor (human) (UniProt P04275); test: Biacore SPR, human vWF immobilized on a CM-5 chip by amine coupling, full-length recombinant FVIII passed over as analyte
# recombinant mouse FcRn = molecular target: T1, recombinant mouse FcRn; test: Biacore, mFcRn immobilized on CM-5 chip
# Text: The following example describes functional studies performed using the Biacore™ system to determine whether an FcRn binding epitope retains it ability to bind to FnRn when incorporated in a Factor VIII fusion heterodimer. For use in the Biacore™ test, recombinant mouse FcRn (mFcRn) protein was expressed in CHO-K1 cells and purified by mouse IgG-affinity chromatography. Mouse FcRn was immobilized onto a CM-5 chip by amine coupling. Two Factor VIII heterodimers (BDDFc+hinge and BDDFc−hinge), BDD (the Factor VIII protein from which BDDFc+hinge and BDDFc−hinge are derived), and full-length recombinant Factor VIII were passed over the surface of the chip at various concentrations (e.g., 1.5, 3, 6, 12, 25, and 50 nM). Binding of BDDFc±hinge Factor VIII fusion heterodimers to immobilized mFcRn was detected (FIG. 13).
# [2] = molecular target: T2, human von Willebrand Factor (human, UniProt P04275 764-2813); test: Biacore, human vWF immobilized on CM-5 chip
# T2 construct: also called vWF; vWf
# Protocol: (§1) Human vWF was immobilized onto a CM-5 chip by amine coupling. Two Factor VIII heterodimers (BDDFc+hinge and BDDFc−hinge), BDD (the Factor VIII protein from which BDDFc+hinge and BDDFc−hinge are derived), and full-length recombinant Factor VIII were passed over the surface of the chip at various concentrations (e.g., 1, 2, 4, 8, 16, and 25 nM).
# [3] = molecular target: T2, human von Willebrand Factor; test: Biacore SPR, human vWF immobilized on a CM-5 chip by amine coupling, BDD passed over as analyte
# Protocol: as §1
Kd [1] [nM],Kd (recombinant mouse FcRn) [nM],Kd [2] [nM],Kd [3] [nM],Molecule
0.657,–,–,–,full-length recombinant Factor VIII (from UniProt P00451 20-2351)
–,3.75,0.908,–,"BDDFc-hinge Factor VIII fusion heterodimer (Fc fusion, No signal peptide limits are stated on this entry; It is processed into a heavy chain-Fc chimera and a light chain; also called BDDmFc-hinge expression product; FVIII-Fc) ATRRYYLGAVELSWDYMQSDLGELPVDARFPPRVPKSFPFNTSVVYKKTLFVEFTDHLFNIAKPRPPWMGLLGPTIQAEVYDTVVITLKNMASHPVSLHAVGVSYWKASEGAEYDDQTSQREKEDDKVFPGGSHTYVWQVLKENGPMASDPLCLTYSYLSHVDLVKDLNSGLIGALLVCREGSLAKEKTQTLHKFILLFAVFDEGKSWHSETKNSLMQDRDAASARAWPKMHTVNGYVNRSLPGLIGCHRKSVYWHVIGMGTTPEVHSIFLEGHTFLVRNHRQASLEISPITFLTAQTLLMDLGQFLLFCHISSHQHDGMEAYVKVDSCPEEPQLRMKNNEEAEDYDDDLTDSEMDVVRFDDDNSPSFIQIRSVAKKHPKTWVHYIAAEEEDWDYAPLVLAPDDRSYKSQYLNNGPQRIGRKYKKVRFMAYTDETFKTREAIQHESGILGPLLYGEVGDTLLIIFKNQASRPYNIYPHGITDVRPLYSRRLPKGVKHLKDFPILPGEIFKYKWTVTVEDGPTKSDPRCLTRYYSSFVNMERDLASGLIGPLLICYKESVDQRGNQIMSDKRNVILFSVFDENRSWYLTENIQRFLPNPAGVQLEDPEFQASNIMHSINGYVFDSLQLSVCLHEVAYWYILSIGAQTDFLSVFFSGYTFKHKMVYEDTLTLFPFSGETVFMSMENPGLWILGCHNSDFRNRGMTALLKVSSCDKNTGDYYEDSYEDISAYLLSKNNAIEPRSFSQNVPEVSSVFIFPPKPKDVLTITLTPKVTCVVVDISKDDPEVQFSWFVDDVEVHTAQTQPREEQFNSTFRSVSELPIMHQDWLNGKEFKCRVNSAAFPAPIEKTISKTKGRPKAPQVYTIPPPKEQMAKDKVSLTCMITDFFPEDITVEWQWNGQPAENYKNTQPIMDTDGSYFVYSKLNVQKSNWEAGNTFTCSVLHEGLHNHHTEKSLSHSPGKSQNPPVLKRHQREITRTTLQSDQEEIDYDDTISVEMKKEDFDIYDEDENQSPRSFQKKTRHYFIAAVERLWDYGMSSSPHVLRNRAQSGSVPQFKKVVFQEFTDGSFTQPLYRGELNEHLGLLGPYIRAEVEDNIMVTFRNQASRPYSFYSSLISYEEDQRQGAEPRKNFVKPNETKTYFWKVQHHMAPTKDEFDCKAWAYFSDVDLEKDVHSGLIGPLLVCHTNTLNPAHGRQVTVQEFALFFTIFDETKSWYFTENMERNCRAPCNIQMEDPTFKENYRFHAINGYIMDTLPGLVMAQDQRIRWYLLSMGSNENIHSIHFSGHVFTVRKKEEYKMALYNLYPGVFETVEMLPSKAGIWRVECLIGEHLHAGMSTLFLVYSNKCQTPLGMASGHIRDFQITASGQYGQWAPKLARLHYSGSINAWSTKEPFSWIKVDLLAPMIIHGIKTQGARQKFSSLYISQFIIMYSLDGKKWQTYRGNSTGTLMVFFGNVDSSGIKHNIFNPPIIARYIRLHPTHYSIRSTLRMELMGCDLNSCSMPLGMESKAISDAQITASSYFTNMFATWSPSKARLHLQGRSNAWRPQVNNPKEWLQVDFQKTMKVTGVTTQGVKSLLTSMYVKEFLISSSQDGHQWTLFFQNGKVKVFQGNQDSFTPVVNSLDPPLLTRYLRIHPQSWVHQIALRMEVLGCEAQDLY"
–,2.48,0.465,–,"BDDFc+hinge Factor VIII fusion heterodimer (Fc fusion, also called BDDmFc+hinge expression product) ATRRYYLGAVELSWDYMQSDLGELPVDARFPPRVPKSFPFNTSVVYKKTLFVEFTDHLFNIAKPRPPWMGLLGPTIQAEVYDTVVITLKNMASHPVSLHAVGVSYWKASEGAEYDDQTSQREKEDDKVFPGGSHTYVWQVLKENGPMASDPLCLTYSYLSHVDLVKDLNSGLIGALLVCREGSLAKEKTQTLHKFILLFAVFDEGKSWHSETKNSLMQDRDAASARAWPKMHTVNGYVNRSLPGLIGCHRKSVYWHVIGMGTTPEVHSIFLEGHTFLVRNHRQASLEISPITFLTAQTLLMDLGQFLLFCHISSHQHDGMEAYVKVDSCPEEPQLRMKNNEEAEDYDDDLTDSEMDVVRFDDDNSPSFIQIRSVAKKHPKTWVHYIAAEEEDWDYAPLVLAPDDRSYKSQYLNNGPQRIGRKYKKVRFMAYTDETFKTREAIQHESGILGPLLYGEVGDTLLIIFKNQASRPYNIYPHGITDVRPLYSRRLPKGVKHLKDFPILPGEIFKYKWTVTVEDGPTKSDPRCLTRYYSSFVNMERDLASGLIGPLLICYKESVDQRGNQIMSDKRNVILFSVFDENRSWYLTENIQRFLPNPAGVQLEDPEFQASNIMHSINGYVFDSLQLSVCLHEVAYWYILSIGAQTDFLSVFFSGYTFKHKMVYEDTLTLFPFSGETVFMSMENPGLWILGCHNSDFRNRGMTALLKVSSCDKNTGDYYEDSYEDISAYLLSKNNAIEPRSFSQNVPRDCGCKPCICTVPEVSSVFIFPPKPKDVLTITLTPKVTCVVVDISKDDPEVQFSWFVDDVEVHTAQTQPREEQFNSTFRSVSELPIMHQDWLNGKEFKCRVNSAAFPAPIEKTISKTKGRPKAPQVYTIPPPKEQMAKDKVSLTCMITDFFPEDITVEWQWNGQPAENYKNTQPIMDTDGSYFVYSKLNVQKSNWEAGNTFTCSVLHEGLHNHHTEKSLSHSPGKSQNPPVLKRHQREITRTTLQSDQEEIDYDDTISVEMKKEDFDIYDEDENQSPRSFQKKTRHYFIAAVERLWDYGMSSSPHVLRNRAQSGSVPQFKKVVFQEFTDGSFTQPLYRGELNEHLGLLGPYIRAEVEDNIMVTFRNQASRPYSFYSSLISYEEDQRQGAEPRKNFVKPNETKTYFWKVQHHMAPTKDEFDCKAWAYFSDVDLEKDVHSGLIGPLLVCHTNTLNPAHGRQVTVQEFALFFTIFDETKSWYFTENMERNCRAPCNIQMEDPTFKENYRFHAINGYIMDTLPGLVMAQDQRIRWYLLSMGSNENIHSIHFSGHVFTVRKKEEYKMALYNLYPGVFETVEMLPSKAGIWRVECLIGEHLHAGMSTLFLVYSNKCQTPLGMASGHIRDFQITASGQYGQWAPKLARLHYSGSINAWSTKEPFSWIKVDLLAPMIIHGIKTQGARQKFSSLYISQFIIMYSLDGKKWQTYRGNSTGTLMVFFGNVDSSGIKHNIFNPPIIARYIRLHPTHYSIRSTLRMELMGCDLNSCSMPLGMESKAISDAQITASSYFTNMFATWSPSKARLHLQGRSNAWRPQVNNPKEWLQVDFQKTMKVTGVTTQGVKSLLTSMYVKEFLISSSQDGHQWTLFFQNGKVKVFQGNQDSFTPVVNSLDPPLLTRYLRIHPQSWVHQIALRMEVLGCEAQDLY"
–,–,–,0.53,"B-domain deleted Factor VIII (BDD) (other, The protein circulates as a heavy chain and light chain heterodimer; also called BDD-FVIII; BDD Factor VIII) ATRRYYLGAVELSWDYMQSDLGELPVDARFPPRVPKSFPFNTSVVYKKTLFVEFTVHLFNIAKPRPPWMGLLGPTIQAEVYDTVVITLKNMASHPVSLHAVGVSYWKASEGAEYDDQTSQREKEDDKVFPGGSHTYVWQVLKENGPMASDPLCLTYSYLSHVDLVKDLNSGLIGALLVCREGSLAKEKTQTLHKFILLFAVFDEGKSWHSETKNSLMQDRDAASARAWPKMHTVNGYVNRSLPGLIGCHRKSVYWHVIGMGTTPEVHSIFLEGHTFLVRNHRQASLEISPITFLTAQTLLMDLGQFLLFCHISSHQHDGMEAYVKVDSCPEEPQLRMKNNEEAEDYDDDLTDSEMDVVRFDDDNSPSFIQIRSVAKKHPKTWVHYIAAEEEDWDYAPLVLAPDDRSYKSQYLNNGPQRIGRKYKKVRFMAYTDETFKTREAIQHESGILGPLLYGEVGDTLLIIFKNQASRPYNIYPHGITDVRPLYSRRLPKGVKHLKDFPILPGEIFKYKWTVTVEDGPTKSDPRCLTRYYSSFVNMERDLASGLIGPLLICYKESVDQRGNQIMSDKRNVILFSVFDENRSWYLTENIQRFLPNPAGVQLEDPEFQASNIMHSINGYVFDSLQLSVCLHEVAYWYILSIGAQTDFLSVFFSGYTFKHKMVYEDTLTLFPFSGETVFMSMENPGLWILGCHNSDFRNRGMTALLKVSSCDKNTGDYYEDSYEDISAYLLSKNNAIEPRSFSQNPPVLKRHQREITRTTLQSDQEEIDYDDTISVEMKKEDFDIYDEDENQSPRSFQKKTRHYFIAAVERLWDYGMSSSPHVLRNRAQSGSVPQFKKVVFQEFTDGSFTQPLYRGELNEHLGLLGPYIRAEVEDNIMVTFRNQASRPYSFYSSLISYEEDQRQGAEPRKNFVKPNETKTYFWKVQHHMAPTKDEFDCKAWAYFSDVDLEKDVHSGLIGPLLVCHTNTLNPAHGRQVTVQEFALFFTIFDETKSWYFTENMERNCRAPCNIQMEDPTFKENYRFHAINGYIMDTLPGLVMAQDQRIRWYLLSMGSNENIHSIHFSGHVFTVRKKEEYKMALYNLYPGVFETVEMLPSKAGIWRVECLIGEHLHAGMSTLFLVYSNKCQTPLGMASGHIRDFQITASGQYGQWAPKLARLHYSGSINAWSTKEPFSWIKVDLLAPMIIHGIKTQGARQKFSSLYISQFIIMYSLDGKKWQTYRGNSTGTLMVFFGNVDSSGIKHNIFNPPIIARYIRLHPTHYSIRSTLRMELMGCDLNSCSMPLGMESKAISDAQITASSYFTNMFATWSPSKARLHLQGRSNAWRPQVNNPKEWLQVDFQKTMKVTGVTTQGVKSLLTSMYVKEFLISSSQDGHQWTLFFQNGKVKVFQGNQDSFTPVVNSLDPPLLTRYLRIHPQSWVHQIALRMEVLGCEAQDLY"
